According to US20240400703A1 (Genmab, published 2024):
“And” between values parts separate entries of the source, which are not always exact repeats. Equal entries are not always repeated.

Experiments:
[1] = target: T1, human OX40 expressed on cells (human, UniProt P43489 29-277); assay: cell-based or functional assay
T1 sequence: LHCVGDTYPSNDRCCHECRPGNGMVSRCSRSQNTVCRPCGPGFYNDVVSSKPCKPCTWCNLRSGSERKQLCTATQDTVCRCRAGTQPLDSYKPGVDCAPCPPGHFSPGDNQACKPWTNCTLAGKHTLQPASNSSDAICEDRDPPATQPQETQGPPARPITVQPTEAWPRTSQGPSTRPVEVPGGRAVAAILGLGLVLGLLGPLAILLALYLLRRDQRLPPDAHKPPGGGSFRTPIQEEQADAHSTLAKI

[2] = target: T1, human OX40 expressed on cells; assay: flow cytometry, loss of sOX40L (2 µg/mL) binding to activated human CD8+ T cells; competitor sOX40L
Method: (§1) Stimulated PBMCs were pelleted, resuspended in FACS buffer 2 (DPBS with 2% heat-inactivated FBS [Sigma-Aldrich, cat. no. F7524] and 2 mM EDTA [Sigma-Aldrich, cat. no. 03690]), and seeded (100,000 cells/well) in round-bottom 96-well plates (VWR International GmbH, cat. no. 734-197). […] Next, cells were washed twice in FACS buffer, and incubated with 30 μL of the antibody panel described in Table 11 diluted in FACS buffer 2 containing 1:1,500 Fixable Viability Stain eFluor 780 at 4° C. for 20 min, protected from light. The cells were subsequently washed twice with 120-150 μL FACS buffer 2 and measured on a BD FACSCelesta flow cytometer using a BD High Throughput sampler and subsequent analysis was done using FlowJo software.

[3] = target: T1, human OX40 expressed on cells; assay: flow cytometry, activated human CD8+ T cells, donor 2
Method: (§2) Healthy human donor PBMCs were purified essentially as described in Example 7. The cell concentration was adjusted to 2×10⁶ cells per mL (final concentration) in assay medium and plated in 6-well plates (Greiner, cat. no. 657160). PBMCs were stimulated with 0.3 μg/mL anti-CD3 ([…] Technologies, cat. no. 60011) and 0.5 μg/mL anti-CD28 antibodies (BioLegend, cat. no. 302934) and cultured for two days at 37° C., 5% CO₂. Next, the PBMCs were harvested, counted and brought to a concentration of 2×10⁶ cells per mL in FACS buffer 1 (DPBS with 2% heat-inactivated FBS and 2 mM ethylenediaminetetraacetic acid [EDTA]). […] After 60 min at RT, the cells were prepared for flow cytometric analyses. To this end, the cells were washed twice with 150 μL FACS buffer 1 and 30 μL/well cell-surface antibody mix (Table 9) in FACS buffer 1 containing antibody against human Fcγ antibody (Table 9) and fixable viability dye eFluor780 (1:1,500) was added. The staining procedures were carried out at 4° C. for 15-20 min protected from light. Stained cells were washed twice with 120-150 μL FACS buffer 1 (5 min, 460×g, RT) and resuspended in 60-100 μL FACS buffer 1 for direct flow cytometric analyses. Flow cytometric data were acquired on a FACSymphony A3 and analyzed with FlowJo software.

[4] = target: T1, human OX40 expressed on cells; assay: flow cytometry, human T cells activated 72 h with anti-CD3/CD28 beads
[5] = target: T1, human OX40 expressed on cells; assay: flow cytometry, loss of sOX40L (2 µg/mL) binding to activated human CD8+ T cells; competitor sOX40L; unit taken from the upper half of the table
Method: as §1

[6] = target: T1, human OX40 expressed on cells; assay: flow cytometry, activated human CD4+ T cells, donor 3
Method: as §2

[7] = target: T1, human OX40 expressed on cells; assay: flow cytometry, activated human CD4+ T cells, donor 2
Method: as §2

[8] = target: T1, human OX40 expressed on cells; assay: flow cytometry, activated human CD8+ T cells, donor 1
Method: as §2

[9] = target: T1, human OX40 expressed on cells; assay: flow cytometry, activated human CD8+ T cells, without sOX40L, n=3
Method: as §1

[10] = target: T1, human OX40 expressed on cells; assay: flow cytometry, loss of sOX40L (2 µg/mL) binding to activated human CD4+ T cells; competitor sOX40L; unit taken from the upper half of the table
Method: as §1

[11] = target: T1, human OX40 expressed on cells; assay: flow cytometry, activated human CD8+ T cells, mean of 3 donors
Method: as §2

B1: IgG1-CD134-003-HC6LC2-P329R-E345R (antibody)
heavy: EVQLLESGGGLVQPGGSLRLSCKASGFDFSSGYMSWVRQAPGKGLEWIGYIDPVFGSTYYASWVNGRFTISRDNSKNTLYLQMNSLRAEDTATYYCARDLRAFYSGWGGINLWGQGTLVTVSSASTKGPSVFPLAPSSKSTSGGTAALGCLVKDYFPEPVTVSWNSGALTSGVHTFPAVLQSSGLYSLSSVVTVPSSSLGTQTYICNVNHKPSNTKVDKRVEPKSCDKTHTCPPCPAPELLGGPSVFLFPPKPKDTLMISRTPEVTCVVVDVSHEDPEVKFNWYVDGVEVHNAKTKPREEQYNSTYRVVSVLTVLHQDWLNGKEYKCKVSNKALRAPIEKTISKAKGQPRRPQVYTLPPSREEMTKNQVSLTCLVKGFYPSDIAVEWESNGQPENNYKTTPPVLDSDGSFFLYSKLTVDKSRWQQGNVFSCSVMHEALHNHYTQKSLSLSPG
light: AAVLTQSPSSLSASVGDRVTITCQSSQIVVNNNFLSWYQQKPGKAPKLLIYDASNLASGVPDRFSGSGSGTDFTFTISSLQPEDIATYYCLGGYDDDAENAFGGGTKVEIKRTVAAPSVFIFPPSDEQLKSGTASVVCLLNNFYPREAKVQWKVDNALQSGNSQESVTEQDSKDSTYSLSSTLTLSKADYEKHKVYACEVTHQGLSSPVTKSFNRGEC
notes: humanized; human IgG1 with P329R and E345R (Eu numbering), kappa; also called IgG1-CD134-003-HC6LC2-RR
Average EC50 CD4+ T-cell proliferation (17 donors) [1]: 0.013 µg/ml and 0.085 nM
Average EC50 CD8+ T-cell proliferation (17 donors) [1]: 0.017 µg/ml and 0.115 nM
EC50 CD4+ T-cell proliferation, donor 1 [1]: 0.009 µg/ml and 0.057 nM
EC50 CD4+ T-cell proliferation, donor 2 [1]: 0.024 µg/ml and 0.159 nM
EC50 CD4+ T-cell proliferation, donor 3 [1]: 0.012 µg/ml and 0.084 nM
EC50 CD4+ T-cell proliferation, donor 4 [1]: 0.007 µg/ml and 0.048 nM
EC50 CD4+ T-cell proliferation, donor 5 [1]: 0.008 µg/ml and 0.053 nM
EC50 CD4+ T-cell proliferation, donor 6 [1]: 0.006 µg/ml and 0.038 nM
EC50 CD4+ T-cell proliferation, donor 7 [1]: 0.019 µg/ml and 0.129 nM
EC50 CD4+ T-cell proliferation, donor 8 [1]: 0.016 µg/ml and 0.107 nM
EC50 CD4+ T-cell proliferation, donor 9 [1]: 0.007 µg/ml and 0.048 nM
EC50 CD4+ T-cell proliferation, donor 10 [1]: 0.017 µg/ml and 0.111 nM
EC50 CD4+ T-cell proliferation, donor 11 [1]: 0.01 µg/ml and 0.067 nM
EC50 CD4+ T-cell proliferation, donor 12 [1]: 0.009 µg/ml and 0.06 nM
EC50 CD4+ T-cell proliferation, donor 13 [1]: 0.019 µg/ml and 0.125 nM
EC50 CD4+ T-cell proliferation, donor 14 [1]: 0.008 µg/ml and 0.052 nM
EC50 CD4+ T-cell proliferation, donor 15 [1]: 0.02 µg/ml and 0.132 nM
EC50 CD4+ T-cell proliferation, donor 16 [1]: 0.008 µg/ml and 0.053 nM
EC50 CD4+ T-cell proliferation, donor 17 [1]: 0.018 µg/ml and 0.119 nM
EC50 CD8+ T-cell proliferation, donor 1 [1]: 0.028 µg/ml and 0.19 nM
EC50 CD8+ T-cell proliferation, donor 2 [1]: 0.029 µg/ml and 0.195 nM
EC50 CD8+ T-cell proliferation, donor 3 [1]: 0.013 µg/ml and 0.087 nM
EC50 CD8+ T-cell proliferation, donor 4 [1]: 0.007 µg/ml and 0.048 nM
EC50 CD8+ T-cell proliferation, donor 5 [1]: 0.009 µg/ml and 0.058 nM
EC50 CD8+ T-cell proliferation, donor 6 [1]: 0.008 µg/ml and 0.051 nM
EC50 CD8+ T-cell proliferation, donor 7 [1]: 0.041 µg/ml and 0.273 nM
EC50 CD8+ T-cell proliferation, donor 8 [1]: 0.005 µg/ml and 0.033 nM
EC50 CD8+ T-cell proliferation, donor 9 [1]: 0.008 µg/ml and 0.052 nM
EC50 CD8+ T-cell proliferation, donor 10 [1]: 0.016 µg/ml and 0.109 nM
EC50 CD8+ T-cell proliferation, donor 11 [1]: 0.014 µg/ml and 0.095 nM
EC50 CD8+ T-cell proliferation, donor 12 [1]: 0.009 µg/ml and 0.058 nM
EC50 CD8+ T-cell proliferation, donor 13 [1]: 0.052 µg/ml and 0.346 nM
EC50 CD8+ T-cell proliferation, donor 14 [1]: 0.008 µg/ml and 0.054 nM
EC50 CD8+ T-cell proliferation, donor 15 [1]: 0.018 µg/ml and 0.117 nM
EC50 CD8+ T-cell proliferation, donor 16 [1]: 0.011 µg/ml and 0.074 nM
EC50 CD8+ T-cell proliferation, donor 17 [1]: 0.017 µg/ml and 0.116 nM
IC50 [2]: 0.084 µg/mL
EC50 [3]: 0.0163 µg/mL
EC50 (read off the curve) [4]: ~0.02 µg/mL
IC50 [5]: 0.561 nM
EC50 [6]: 0.0187 µg/mL
EC50 [7]: 0.0167 µg/mL
EC50 [8]: 0.0329 µg/mL
EC50 [9]: 0.017 µg/mL and 0.114 nM
IC50 [10]: 0.579 nM
EC50 [11]: 0.0236 µg/mL
